Data on 2 molecules can be found in PMC5662698 (2017).

No end group written: not given here.

The target of assay [1] is TMR-labeled DnaK (DnaK FRET construct C15A/M404C/T437C labelled with tetramethylrhodamine) (E. coli, UniProt P0A6Y8 1-638, C15A | M404C | T437C, tetramethylrhodamine (TMR, from 5-IATR) on both introduced cysteines (M404C, T437C)). Briefly: ATP.
In assay [2] the target is T1, DnaK-C15A/M404C/T437C (Escherichia coli (strain K12)).
T1 chain: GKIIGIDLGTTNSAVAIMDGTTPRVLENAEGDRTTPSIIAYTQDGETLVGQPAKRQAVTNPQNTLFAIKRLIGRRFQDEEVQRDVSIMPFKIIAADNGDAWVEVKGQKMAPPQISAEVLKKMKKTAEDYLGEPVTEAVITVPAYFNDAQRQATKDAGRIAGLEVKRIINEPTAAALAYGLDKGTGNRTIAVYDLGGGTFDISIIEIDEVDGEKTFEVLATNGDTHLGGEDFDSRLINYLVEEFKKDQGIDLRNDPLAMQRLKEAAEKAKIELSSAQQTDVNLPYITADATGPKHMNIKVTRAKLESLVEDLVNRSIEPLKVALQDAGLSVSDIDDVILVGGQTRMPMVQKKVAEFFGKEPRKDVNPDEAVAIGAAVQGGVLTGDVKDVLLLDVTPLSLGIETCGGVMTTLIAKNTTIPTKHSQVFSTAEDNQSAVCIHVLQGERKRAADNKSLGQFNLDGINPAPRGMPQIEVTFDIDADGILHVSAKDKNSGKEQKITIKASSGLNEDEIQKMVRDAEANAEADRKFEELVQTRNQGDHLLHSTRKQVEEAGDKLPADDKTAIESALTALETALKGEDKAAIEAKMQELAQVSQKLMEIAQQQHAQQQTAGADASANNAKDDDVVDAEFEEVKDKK
Kind of assay: FP.

For assay [3], the target named is BiP-C41A/C420A (Homo sapiens). Kind of assay: FP.
Sequence of BiP-C41A/C420A (Homo sapiens) (chain, as listed by the source C41A C420A): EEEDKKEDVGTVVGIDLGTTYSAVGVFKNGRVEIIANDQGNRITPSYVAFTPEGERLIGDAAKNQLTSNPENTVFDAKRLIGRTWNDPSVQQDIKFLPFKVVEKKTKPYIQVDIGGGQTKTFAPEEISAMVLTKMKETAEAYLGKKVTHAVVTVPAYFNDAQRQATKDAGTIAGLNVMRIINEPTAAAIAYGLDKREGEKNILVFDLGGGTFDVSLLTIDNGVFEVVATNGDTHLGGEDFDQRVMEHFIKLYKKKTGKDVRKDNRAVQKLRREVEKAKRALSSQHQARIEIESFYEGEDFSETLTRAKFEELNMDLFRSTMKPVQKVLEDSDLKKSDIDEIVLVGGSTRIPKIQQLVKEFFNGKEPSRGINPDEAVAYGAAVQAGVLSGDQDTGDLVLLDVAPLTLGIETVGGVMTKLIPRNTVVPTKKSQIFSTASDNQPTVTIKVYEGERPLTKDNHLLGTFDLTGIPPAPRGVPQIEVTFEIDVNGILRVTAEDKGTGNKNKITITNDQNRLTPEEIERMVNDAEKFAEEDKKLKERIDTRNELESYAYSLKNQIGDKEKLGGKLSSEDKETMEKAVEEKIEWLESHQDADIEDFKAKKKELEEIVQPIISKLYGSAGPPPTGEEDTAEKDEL
Assay [4] deals with BiP EPR construct BiP-C41A/C420A/V429C (human, UniProt P11021 19-654, C41A | C420A | V429C). Kind of assay: FP.
Sequence of BiP EPR construct BiP-C41A/C420A/V429C (P11021 19-654 C41A/C420A/V429C): as the sequence (chain, as listed by the source C41A C420A) above, with V411C counted along it
The target in assay [5] is human BiP, wild type (human, UniProt P11021 19-654). Briefly: FP.
Sequence of human BiP, wild type (P11021 19-654): as the sequence (chain, as listed by the source C41A C420A) above, with A23C, A402C counted along it
Assay [6] addresses BiP FRET construct BiP-C41A/C420A/V429C/T462C (human, UniProt P11021 19-654, C41A | C420A | V429C | T462C). Briefly: FP.

Sequence of BiP FRET construct BiP-C41A/C420A/V429C/T462C (P11021 19-654 C41A/C420A/V429C/T462C): as the sequence (chain, as listed by the source C41A C420A) above, with V411C, T444C counted along it

B1: DnaJ (natural protein)
chain: MAKQDYYEILGVSKTAEEREIRKAYKRLAMKYHPDRNQGDKEAEAKFKEIKEAYEVLTDSQKRAAYDQYGHAAFEQGGMGGGGFGGGADFSDIFGDVFGDIFGGGRGRQRAARGADLRYNMELTLEEAVRGVTKEIRIPTLEECDVCHGSGAKPGTQPQTCPTCHGSGQVQMRQGFFAVQQTCPHCQGRGTLIKDPCNKCHGHGRVERSKTLSVKIPAGVDTGDRIRLAGEGEAGEHGAPAGDLYVQVQVKQHPIFEREGNNLYCEVPINFAMAALGGEIEVPTLDGRVKLKVPGETQTGKLFRMRGKGVKSVRGGAQGDLLCRVVVETPVGLNERQKQLLQELQESFGGPTGEHNSPRSKSFFDGVKKFFDDLTR
For orientation: Kd means a measure of binding affinity in units of concentration. High values mean lower affinity, low ones higher affinity. Take B1: the Kd in assay [1] was 182 nM.

As to fluorescein-NRLLLTG [NR peptide (NRLLLTG), fluorescein-labelled], the dissociation constant Kd in assay [2] was 2120 nM; in assay [3], 850 nM; in assay [4] it was 820 nM; in assay [5], 910 nM; in assay [6], 610 nM.
